Target: beta-amyloid 42 peptide (UniProt P05067)
Assay: SiMoA

binding result: no binding
B1: Donanemab (antibody, V domains shown)
VH: QVQLVQSGAEVKKPGSSVKVSCKASGYDFTRYYINWVRQAPGQGLEWMGWINPGSGNTKYNEKFKGRVTITADESTSTAYMELSSLRSEDTAVYYCAREGITVYWGQGTTVTVSS
VL: DIVMTQTPLSLSVTPGQPASISCKSSQSLLYSRGKTYLNWLLQKPGQSPQLLIYAVSKLDSGVPDRFSGSGSGTDFTLKISRVEAEDVGVYYCVQGTHYPFTFGQGTKLEIK

Reference: publication doi:10.1101/2024.10.11.617910 (bioRxiv, 2024)
